Here are results for two molecules from paper PMC11672684 (Cell Reports, 2024).

In test [1] the target is T1, H1 A/New Caledonia/20/1999 HA (influenza A virus A/New …). Kind of test: ELISA + BLI. The note with it: both partners purified.
In test [2] the target is T1, H1 A/New Caledonia/20/1999 HA. Description: cryo-EM structure. Conditions: both partners purified.

B1: 43_S0008 (antibody, V domains shown)
VH: QVQLVQSGAEVKKPGSSVKVSCKASGGTFRTFGISWVRQAPGQGLEWMGWIIPIIGTPNYAQKFQGRVIITADESSNTAYMELNSLKSEDTAVYYCAKEGRALLRYFDWLPLDAFDIWGQGTMVTVSS
VL: DIVLTQTPLSLPVSLGDQASISCRSSQSLVHSDGNTYLHWYLQKPGQSPKLLIYKVSNRFSGVPDRFSGSGSGTDFTLKISRVEAEDLGVYFCSQSTHVPPLTFGAGTKLELK
notes: also called mAb 43_S0008; IGHV1-69 + IGHD3-9 mAb 43_S0008; source: Expi293 cells, purified (protein A)
For B1, the binding result in test [1] is reported as “binds”.

B2: Fab 43_S0008 (Fab, V domains shown)
VH: QVQLVQSGAEVKKPGSSVKVSCKASGGTFRTFGISWVRQAPGQGLEWMGWIIPIIGTPNYAQKFQGRVIITADESSNTAYMELNSLKSEDTAVYYCAKEGRALLRYFDWLPLDAFDIWGQGTMVTVSS
VL: DIVLTQTPLSLPVSLGDQASISCRSSQSLVHSDGNTYLHWYLQKPGQSPKLLIYKVSNRFSGVPDRFSGSGSGTDFTLKISRVEAEDLGVYFCSQSTHVPPLTFGAGTKLELK
notes: also called 43_S0008 Fab
B2: the binding result in test [2] is “binds”.
